Experimental data as given in publication PMC5457145 (Science Advances, 2017).
Changes are numbered by the printed parent chain. Names and notes keep the numbering of the source. Ends that are not written are not given here.

How the values were obtained:
[1] = target: T1, His6Sumo-tagged TPR2 TPD (rice, UniProt Q5NBT9 1-209); test: AlphaScreen or HTRF
T1 sequence (looked up): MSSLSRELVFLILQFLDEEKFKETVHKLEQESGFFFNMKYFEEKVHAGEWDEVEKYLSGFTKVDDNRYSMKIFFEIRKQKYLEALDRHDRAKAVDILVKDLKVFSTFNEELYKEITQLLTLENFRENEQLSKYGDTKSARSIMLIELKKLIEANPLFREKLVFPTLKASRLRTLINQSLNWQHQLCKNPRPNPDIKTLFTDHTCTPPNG

[2] = target: T2, His6Sumo-TPR2 TPD L198A (rice, UniProt Q5NBT9 1-209, L198A); test: AlphaScreen or HTRF
T2 sequence (looked up): T1 sequence (looked up) with L198A

[3] = target: T3, His6Sumo-TPR2 TPD N176H/Y68A (rice, UniProt Q5NBT9 1-209, N176H | Y68A); test: AlphaScreen or HTRF
T3 sequence (looked up): T1 sequence (looked up) with Y68A, N176H

[4] = target: T4, His6Sumo-TPR2 TPD L179A/I195A (rice, UniProt Q5NBT9 1-209, L179A | I195A); test: AlphaScreen or HTRF
T4 sequence (looked up): T1 sequence (looked up) with L179A, I195A

[5] = target: T5, His6Sumo-TPR2 TPD N180A (rice, UniProt Q5NBT9 1-209, N180A); test: AlphaScreen or HTRF
T5 sequence (looked up): T1 sequence (looked up) with N180A

[6] = target: T6, His6Sumo-TPR2 TPD L111A/L130A (rice, UniProt Q5NBT9 1-209, L111A | L130A); test: AlphaScreen or HTRF
T6 sequence (looked up): T1 sequence (looked up) with L111A, L130A

[7] = target: T7, His6Sumo-TPR2 TPD N176H/K71A (rice, UniProt Q5NBT9 1-209, N176H | K71A); test: AlphaScreen or HTRF
T7 sequence (looked up): T1 sequence (looked up) with K71A, N176H

[8] = target: T8, His6Sumo-TPR2 TPD N176H/Y68R (rice, UniProt Q5NBT9 1-209, N176H | Y68R); test: AlphaScreen or HTRF
T8 sequence (looked up): T1 sequence (looked up) with Y68R, N176H

[9] = target: T9, His6Sumo-TPR2 TPD W181A (rice, UniProt Q5NBT9 1-209, W181A); test: AlphaScreen or HTRF
T9 sequence (looked up): T1 sequence (looked up) with W181A

[10] = target: T10, His6Sumo-TPR2 TPD N176H/R67A (rice, UniProt Q5NBT9 1-209, N176H | R67A); test: AlphaScreen or HTRF
T10 sequence (looked up): T1 sequence (looked up) with R67A, N176H

[11] = target: T1, His6Sumo-tagged TPR2 TPD; test: AlphaScreen or HTRF; remark: listed apart in the source
[12] = target: the molecule itself; test: crystal structure

## DNLIYADLNLQ (peptide, UniProt Q2RBP2 794-804, looked up) [D53 EAR-2 peptide L799A]
[1]
  IC50: 14.3 µM

## DNLIYLDLNLA (peptide, UniProt Q2RBP2 794-804, looked up) [D53 EAR-2 peptide Q804A]
[1]
  fold increase of the strength of the interaction against wild-type EAR-2: > 3 fold

## DNLIYLDLNLQDWDD (peptide, UniProt Q2RBP2 794-808, looked up, also: biotinylated, site not given here) [Biotinylated D53 EAR-2 peptide, D53(794–808)]
[2]
  binding result: binds
[3]
  binding result: binds
[4]
  binding result: binds
[5]
  binding result: binds
[6]
  binding result: binds
[7]
  binding result: binds
[8]
  binding result: binds
[9]
  binding result: binds
[10]
  binding result: binds
[11]
  binding result: binds

B1: TPR2 TPD, TPR2(1–209), untagged (domain or fragment, rice, UniProt Q5NBT9 1-209, looked up)
chain: T1 sequence (looked up)
[12]
  stoichiometry N: 4

B2: TPR2 TPD L111A/L130A, untagged (domain or fragment, rice, UniProt Q5NBT9 1-209, looked up)
chain: T1 sequence (looked up) with L111A, L130A
[12]
  binding result: binds
